Test results reported in US20200165325A1.

What was measured:
[1] = target: HIV-1 Env of strain 0330.v4.c3 (HIV-1)
[2] = target: HIV-1 Env of strain 0815.v3.c3 (HIV-1)
[3] = target: HIV-1 Env of strain 1054_07_TC4_1499 (HIV-1)
[4] = target: HIV-1 Env of strain 1056_10_TA11_1826 (HIV-1)
[5] = target: HIV-1 Env of strain 211-9 (HIV-1)
[6] = target: HIV-1 Env of strain 231966.c02 (HIV-1)
[7] = target: HIV-1 Env of strain 3016.v5.c45 (HIV-1)
[8] = target: HIV-1 Env of strain 3103.v3.c10 (HIV-1)
[9] = target: HIV-1 Env of strain 3415.v1.c1 (HIV-1)
[10] = target: HIV-1 Env of strain 3718.v3.c11 (HIV-1)
[11] = target: HIV-1 Env of strain 6480.v4.c25 (HIV-1)
[12] = target: HIV-1 Env of strain 6535.3 (HIV-1)
[13] = target: HIV-1 Env of strain 6540.v4.c1 (HIV-1)
[14] = target: HIV-1 Env of strain 6811.v7.c18 (HIV-1)
[15] = target: HIV-1 Env of strain 928-28 (HIV-1)
[16] = target: HIV-1 Env of strain AC10.0.29 (HIV-1)
[17] = target: HIV-1 Env of strain C3347.c11 (HIV-1)
[18] = target: HIV-1 Env of strain CAAN5342.A2 (HIV-1)
[19] = target: HIV-1 Env of strain CAP45.2.00.G3 (HIV-1)
[20] = target: HIV-1 Env of strain CNE17 (HIV-1)
[21] = target: HIV-1 Env of strain CNE20 (HIV-1)
[22] = target: HIV-1 Env of strain CNE21 (HIV-1)
[23] = target: HIV-1 Env of strain CNE30 (HIV-1)
[24] = target: HIV-1 Env of strain CNE53 (HIV-1)
[25] = target: HIV-1 Env of strain CNE58 (HIV-1)
[26] = target: HIV-1 Env of strain Ce0393_C3 (HIV-1)
[27] = target: HIV-1 Env of strain Ce1176_A3 (HIV-1)
[28] = target: HIV-1 Env of strain Ce2010_F5 (HIV-1)
[29] = target: HIV-1 Env of strain Ce2060_G9 (HIV-1)
[30] = target: HIV-1 Env of strain Ce703010054_2A2 (HIV-1)
[31] = target: HIV-1 Env of strain Du156.12 (HIV-1)
[32] = target: HIV-1 Env of strain Du172.17 (HIV-1)
[33] = target: HIV-1 Env of strain HIV-16845-2.22 (HIV-1)
[34] = target: HIV-1 Env of strain P0402_c2_11 (HIV-1)
[35] = target: HIV-1 Env of strain P1981_C5_3 (HIV-1)
[36] = target: HIV-1 Env of strain Q259.d2.17 (HIV-1)
[37] = target: HIV-1 Env of strain Q461.e2 (HIV-1)
[38] = target: HIV-1 Env of strain Q769.d22 (HIV-1)
[39] = target: HIV-1 Env of strain Q842.d12 (HIV-1)
[40] = target: HIV-1 Env of strain REJO4541.67 (HIV-1)
[41] = target: HIV-1 Env of strain RHPA4259.7 (HIV-1)
[42] = target: HIV-1 Env of strain SC422661.8 (HIV-1)
[43] = target: HIV-1 Env of strain T250-4 (HIV-1)
[44] = target: HIV-1 Env of strain T251-18 (HIV-1)
[45] = target: HIV-1 Env of strain T255-34 (HIV-1)
[46] = target: HIV-1 Env of strain T278-50 (HIV-1)
[47] = target: HIV-1 Env of strain THRO4156.18 (HIV-1)
[48] = target: HIV-1 Env of strain TRJO4551.58 (HIV-1)
[49] = target: HIV-1 Env of strain WEAU_d15_410_787 (HIV-1)
[50] = target: HIV-1 Env of strain WITO4160.33 (HIV-1)
[51] = target: HIV-1 Env of strain X1193_c1 (HIV-1)
[52] = target: HIV-1 Env of strain X2131_C1_B5 (HIV-1)
[53] = target: HIV-1 Env of strain ZM109F.PB4 (HIV-1)
[54] = target: HIV-1 Env of strain ZM197M.PB7 (HIV-1)
[55] = target: HIV-1 Env of strain ZM233M.PB6 (HIV-1)
[56] = target: HIV-1 Env of strain ZM249M.PL1 (HIV-1)
[57] = target: HIV-1 Env of strain ZM53M.PB12 (HIV-1)

Q: Which In vitro neutralization IC80 [1] does the source give for NIH45-46 G54F IgG (antibody) here?
A: 0.13 µg/mL

Q: What about the In vitro neutralization IC80 [2] of the same substance?
A: 0.014 µg/mL

Q: And the In vitro neutralization IC80 [3]?
A: 0.283 µg/mL

Q: And the In vitro neutralization IC80 [4]?
A: 0.283 µg/mL

Q: What about the In vitro neutralization IC80 [5] of the same substance?
A: > 50 µg/mL

Q: What about the In vitro neutralization IC80 [6] of the same substance?
A: 0.24 µg/mL

Q: And the In vitro neutralization IC80 [7]?
A: 37 µg/mL

Q: What about the In vitro neutralization IC80 [8] of the same substance?
A: 1.28 µg/mL

Q: And the In vitro neutralization IC80 [9]?
A: 0.029 µg/mL

Q: And the In vitro neutralization IC80 [10]?
A: 4.62 µg/mL

Q: And the In vitro neutralization IC80 [11]?
A: 0.046 µg/mL

Q: And the In vitro neutralization IC80 [12]?
A: 0.27 µg/mL

Q: What about the In vitro neutralization IC80 [13] of the same substance?
A: > 50 µg/mL

Q: And the In vitro neutralization IC80 [14]?
A: 0.063 µg/mL

Q: What about the In vitro neutralization IC80 [15] of the same substance?
A: 0.41 µg/mL

Q: And the In vitro neutralization IC80 [16]?
A: 1.12 µg/mL

Q: And the In vitro neutralization IC80 [17]?
A: 0.059 µg/mL

Q: What about the In vitro neutralization IC80 [18] of the same substance?
A: 0.28 µg/mL

Q: What about the In vitro neutralization IC80 [19] of the same substance?
A: > 50 µg/mL

Q: And the In vitro neutralization IC80 [20]?
A: 0.287 µg/mL

Q: And the In vitro neutralization IC80 [21]?
A: 3.91 µg/mL

Q: And the In vitro neutralization IC80 [22]?
A: 0.66 µg/mL

Q: What about the In vitro neutralization IC80 [23] of the same substance?
A: 0.348 µg/mL

Q: What about the In vitro neutralization IC80 [24] of the same substance?
A: 0.024 µg/mL

Q: And the In vitro neutralization IC80 [25]?
A: 0.11 µg/mL

Q: And the In vitro neutralization IC80 [26]?
A: 0.173 µg/mL

Q: And the In vitro neutralization IC80 [27]?
A: 0.83 µg/mL

Q: What about the In vitro neutralization IC80 [28] of the same substance?
A: 0.186 µg/mL

Q: What about the In vitro neutralization IC80 [29] of the same substance?
A: 0.085 µg/mL

Q: What about the In vitro neutralization IC80 [30] of the same substance?
A: 0.07 µg/mL

Q: And the In vitro neutralization IC80 [31]?
A: 0.019 µg/mL

Q: And the In vitro neutralization IC80 [32]?
A: > 50 µg/mL

Q: What about the In vitro neutralization IC80 [33] of the same substance?
A: 2.75 µg/mL

Q: And the In vitro neutralization IC80 [34]?
A: 0.047 µg/mL

Q: What about the In vitro neutralization IC80 [35] of the same substance?
A: 0.11 µg/mL

Q: What about the In vitro neutralization IC80 [36] of the same substance?
A: 0.036 µg/mL

Q: What about the In vitro neutralization IC80 [37] of the same substance?
A: 0.135 µg/mL

Q: And the In vitro neutralization IC80 [38]?
A: 0.023 µg/mL

Q: And the In vitro neutralization IC80 [39]?
A: 0.039 µg/mL

Q: What about the In vitro neutralization IC80 [40] of the same substance?
A: 0.028 µg/mL

Q: What about the In vitro neutralization IC80 [41] of the same substance?
A: 0.02 µg/mL

Q: And the In vitro neutralization IC80 [42]?
A: 0.1 µg/mL

Q: And the In vitro neutralization IC80 [43]?
A: > 50 µg/mL

Q: What about the In vitro neutralization IC80 [44] of the same substance?
A: 1.38 µg/mL

Q: What about the In vitro neutralization IC80 [45] of the same substance?
A: 0.198 µg/mL

Q: What about the In vitro neutralization IC80 [46] of the same substance?
A: > 50 µg/mL

Q: And the In vitro neutralization IC80 [47]?
A: 3.01 µg/mL

Q: What about the In vitro neutralization IC80 [48] of the same substance?
A: 0.08 µg/mL

Q: And the In vitro neutralization IC80 [49]?
A: 0.004 µg/mL

Q: And the In vitro neutralization IC80 [50]?
A: 0.14 µg/mL

Q: What about the In vitro neutralization IC80 [51] of the same substance?
A: 0.026 µg/mL

Q: What about the In vitro neutralization IC80 [52] of the same substance?
A: 0.41 µg/mL

Q: What about the In vitro neutralization IC80 [53] of the same substance?
A: 0.17 µg/mL

Q: What about the In vitro neutralization IC80 [54] of the same substance?
A: 0.23 µg/mL

Q: What about the In vitro neutralization IC80 [55] of the same substance?
A: 0.99 µg/mL

Q: What about the In vitro neutralization IC80 [56] of the same substance?
A: 0.016 µg/mL

Q: And the In vitro neutralization IC80 [57]?
A: 0.23 µg/mL
